Source: article PMC9820535

Target: T1, rDmeR (Vibrio parahaemolyticus RIMD 2210633) (UniProt Q87GM9)
T1 sequence: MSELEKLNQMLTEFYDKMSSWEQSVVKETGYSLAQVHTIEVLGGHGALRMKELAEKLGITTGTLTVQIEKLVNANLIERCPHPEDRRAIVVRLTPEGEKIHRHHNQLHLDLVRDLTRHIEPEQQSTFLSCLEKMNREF
Assay: EMSA
Settings: 10 mM Tris pH 7.4, 150 mM NaCl, 0.1 mM DTT, 0.1 mM EDTA or 0.5 mM CoSO4, 200 ng poly(dI:dC), 20 ng DNA, 0-1.0 ug rDmeR in 20 uL, 25 C 30 min, 6% native PAGE

Sequence | binding
TAAGCGGCTGATTCCCAAACAAGGCCGCATATGTTCATGCGGGGAGGCATCAGATTGGCCAATCTTGAGTGCAGTGATGAACGCCTTTCTTAGTTTTCTATGTTGACTTTGTTTGATGGTCAAACTAAATTTAAATCAAATATTTTGATTATCAAACAAAATGAGCAATAACGATATGATTTATCTATGGCAATAGCACAACACACGC (double strand) [PdmeRF promoter probe (WT)] | binds
CAAGGGCAACATCTTACAGCCATGACCGGTAAACAATGCATTTACCTAATTGACGACTTTGCGTCGGAATTAGATAGCCAACGTCGCAAGCGTCTTGCAGATTGCTTGAAAGAGACAGGCGCACAAGTATTTGTAAGCTCTATCACTGAAAACCAAATCGCCGACATGCTCGACGATAATGGCAAATTGTTTCATGTGGAACATGGCAGGATAGA (double strand) [PgyrB promoter probe] | no binding
